The source of these data is the supplement of paper PMC10567573.

± gives the standard deviation.

The data set can be described thus: protein stability index of a GFP-peptide fusion (GPS, HEK-293T) (PSI 1-6); higher = more stable.
Setting [1] is: treatment: DMSO, c terminus: a fixed tail appended.
The mark [2] stands for this setting: treatment: MLN4924 1 uM, 8 h, c terminus: a fixed tail appended.
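Also: 24-mer peptide tiles fused after GFP, lentivirally expressed, FACS-sorted into six equal bins by GFP/DsRed ratio, decoded by Illumina sequencing, PSI is the read-weighted mean bin number.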

Regarding KQTREQLHSISDSVLFLQEFGALM [TRIM29], the protein stability index is, setting by setting: under setting [1], 2.44 ± 0.52; under setting [2], 2.36 ± 0.34.

With KREREVDEDSEPEREVRAKNGRVD [USP39], the protein stability index stood at 5.46 ± 0.081 under setting [1] and 5.69 ± 0.12 under setting [2].

As to KRITAHEALKHPWVCQRSTVASMM [CAMK2B], the protein stability index runs as follows: under setting [1], 2.5 ± 0.39; under setting [2], 2.51 ± 0.26.

KRSWEEHVTHWMGQPFNSDDRNTA [DLC1]: the protein stability index runs as follows: under setting [1], 3.12 ± 0.47; under setting [2], 3.52 ± 0.52.

Consider KRYDGLKYDVKKVEEVVYDLSIRG [TSN], for which the protein stability index runs as follows: under setting [1], 3.33 ± 0.27; under setting [2], 3.29 ± 0.094.

With KRYGLGAHRGRLNIQAGINENDFY [CPXM2], the protein stability index is 2.45 ± 0.44 under setting [1] and 2.61 ± 0.28 under setting [2].

Turning to KSHVYMAWNIPMSNPGVDFGDVSE [GALNT9], the protein stability index worked out at 2.65 ± 0.26 under setting [1] and 2.79 ± 0.15 under setting [2].

For KSKAYTVVGTPCYISPELCEGKPY [NEK8], the protein stability index stood at 2.83 ± 0.084 under setting [1] and 3.03 ± 0.27 under setting [2].

On to KSKGYGFVSFFNKWDAENAIQQMG [TIA1], for which the protein stability index is, setting by setting: under setting [1], 2.11 ± 0.76; under setting [2], 1.59 ± 0.3.

As for KSVQCGTWTKHAEGGIFTSPNYPS [NETO1], the protein stability index runs as follows: under setting [1], 2.88 ± 0.19; under setting [2], 2.89 ± 0.24.

For the sequence KTHSQELMKESLQTGDLLSTFHTI [PLAGL1], the protein stability index turned out to be 3.49 ± 0.27 under setting [1] and 3.64 ± 0.23 under setting [2].

On to KVEKMLISSIKEKYPSHSFIGEES [IMPA1], for which the protein stability index turned out to be 3.26 ± 0.2 under setting [1] and 3.17 ± 0.14 under setting [2].

Take KVFLHERELWLKFHEVGTEMIITK [TBX5]: the protein stability index under setting [1] came to 2.12 ± 0.19 and the protein stability index under setting [2] is 2.33 ± 0.44.

Take KVLGELNILPNTQKVTCFYQPAPY [TENT5D]: the protein stability index runs as follows: under setting [1], 2.5 ± 0.23; under setting [2], 2.16 ± 0.3.

Regarding KVLQGGEQEIQFEDFTNTLRELGH [PKD2L1], the protein stability index worked out at 3.08 ± 0.35 under setting [1] and 3.31 ± 0.23 under setting [2].

KVVEAHKIVLCAVSHVFMLLFNVK [RHOBTB3]: the protein stability index is, setting by setting: under setting [1], 2.81 ± 0.64; under setting [2], 3.07 ± 0.46.

On to KVWSLTGQVAEDRFPESHLPIQTP [TLE6], for which the protein stability index stood at 3.58 ± 0.21 under setting [1] and 3.47 ± 0.39 under setting [2].

Turning to KVYDDMAFRYLSWILFPLLGCYAV [CLPTM1], the protein stability index reads like this: under setting [1], 3.15 ± 0.23; under setting [2], 3.07 ± 0.55.

In the case of LAARSGAAYGPGARGEDRAGPQSP [TSPAN10], the protein stability index came out at 5.15 ± 0.22 under setting [1] and 4.9 ± 0.09 under setting [2].

As for LAIDFIDEGRLLLEFDLLIFSFGQ [SOAT2], the protein stability index by setting is: under setting [1], 3.35 ± 0.39; under setting [2], 2.78 ± 0.57.

Consider LARLEERSSEFYRVTTEQYQKAAE [CHCHD3], for which the protein stability index runs as follows: under setting [1], 4.29 ± 0.27; under setting [2], 4.29 ± 0.21.

For the sequence LASLVSQGMIQLALSGASQPGPSG [RETREG3], the protein stability index by setting is: under setting [1], 2.89 ± 1.2; under setting [2], 1.99 ± 0.66.

For the sequence LDKLRNEWASHTAALTNKHSQELT [SASS6], the protein stability index was determined as 3.85 ± 0.33 under setting [1] and 3.83 ± 0.3 under setting [2].

For the sequence LDLFGVSMVVPLLSLHVKSLGASP [MFSD9], the protein stability index stood at 2.81 ± 0.62 under setting [1] and 3.02 ± 0.17 under setting [2].

Regarding LDQKKQDPRVQDFLQRCLESPFSR [NET1], the protein stability index turned out to be 3.51 ± 0.18 under setting [1] and 3.55 ± 0.44 under setting [2].

As for LDRLKVLMQVHASRSNNMGIVGGF [SLC25A25], the protein stability index is, setting by setting: under setting [1], 2.25 ± 0.7; under setting [2], 2.1 ± 0.36.

Consider LEPEAAEEALENGPKESLPVIAAP [ACBD3], for which the protein stability index is 5.67 ± 0.25 under setting [1] and 5.64 ± 0.24 under setting [2].

LEPVKKSRLQLLGATCMFVASKMK [CCND1]: the protein stability index is, setting by setting: under setting [1], 2.23 ± 0.16; under setting [2], 2.12 ± 0.41.

As for LEQIMESVKSKIGELEDESLNRAC [CEP70], the protein stability index runs as follows: under setting [1], 4.47 ± 0.35; under setting [2], 4.46 ± 0.36.

Take LFIQKEEQLQQILKRKNKQAFLDE [MNAT1]: the protein stability index is 2.5 ± 0.47 under setting [1] and 2.61 ± 0.32 under setting [2].

As to LFPGRVSVDLMLGLPAQQVGPWLG [RSAD1], the protein stability index under setting [1] was determined as 2.41 ± 0.86 and the protein stability index under setting [2] amounted to 2.32 ± 0.9.

LFPVFLATDYLRYKPVVLLQGLSL [SLC19A2]: the protein stability index worked out at 2.88 ± 0.41 under setting [1] and 2.84 ± 0.72 under setting [2].

On to LGGIGFSSCIVCLFVGLYYNVIIG [SLC6A17], for which the protein stability index under setting [2] came out at 3.92 ± 0.088.

Take LGNLVEGMDFHRFYFENALSKSNK [CAMK2D]: the protein stability index was 2.89 ± 0.2 under setting [1] and 3.23 ± 0.066 under setting [2].

As to LGSVQFMEQFCWPHLRSFCETCVG, the protein stability index is, setting by setting: under setting [1], 2.39 ± 0.29; under setting [2], 2.21 ± 0.41.

As to LGYAASLEASVQDDAGTSGGPSSP [C2CD2L], the protein stability index under setting [1] was 5.45 ± 0.34 and the protein stability index under setting [2] came out at 5.53 ± 0.22.

In turn, LHAPPAFYSTSSGLANGLQLLCPW [VENTX] showed a protein stability index under setting [1] of 2.32 ± 0.1 and a protein stability index under setting [2] of 2.27 ± 0.26.

Regarding LHCYRDRPHEVLLCSDLVKAYQRC [CHCHD6], the protein stability index was found to be 2.16 ± 0.36 under setting [1] and 2.19 ± 0.24 under setting [2].

Turning to LHELSSRVEASHLTTSQERELGIR [FBF1], the protein stability index by setting is: under setting [1], 4.46 ± 0.17; under setting [2], 4.36 ± 0.25.

As for LHPPVDDPQSGELPSERWNPTQNV [CDC34], the protein stability index is, setting by setting: under setting [1], 5.02 ± 0.36; under setting [2], 5.04 ± 0.32.

Turning to LHQETQLIHVYLPLTSHILRAFVN [SNX8], the protein stability index is, setting by setting: under setting [1], 3.06 ± 0.67; under setting [2], 2.86 ± 0.48.

On to LIGDTLLVAPVLEPGKQERDVYLP [MYORG], for which the protein stability index is 3.23 ± 0.12 under setting [1] and 3.03 ± 0.22 under setting [2].

On to LILSIIFIEGYCTPEEVIWEALNM [MAGEA10], for which the protein stability index is 3.32 ± 0.44 under setting [1] and 3.21 ± 0.79 under setting [2].

Regarding LKPHLEGAAFRDHQLLEPIRDFEA [TRIM29], the protein stability index is, setting by setting: under setting [1], 3.88 ± 0.31; under setting [2], 4.26 ± 0.25.

In turn, LKRSHRESQFLMAKKNFNTNLLE [HESX1] returned a protein stability index (treatment: DMSO, c terminus: native) of 3.36 ± 0.24 and a protein stability index (treatment: MLN4924 1 uM, 8 h, c terminus: native) of 3.62 ± 0.2.

On to LKSDLEKASALNTKIRALQGSLEN [CD207], for which the protein stability index under setting [1] was determined as 3.91 ± 0.26 and the protein stability index under setting [2] came to 3.73 ± 0.66.

With LKTKDGKLPFCAMGVSSVIHPKNP [CPOX], the protein stability index was determined as 3.17 ± 0.34 under setting [1] and 3.17 ± 0.51 under setting [2].

For LLETNPYLLALTIIVSIVHSVFEF [CLPTM1], the protein stability index came out at 3.08 ± 0.33 under setting [1] and 2.69 ± 0.13 under setting [2].

Under setting [1], LLFINHRLVESTSLRKAIETVYAA [MLH1] had a protein stability index of 2.2 ± 0.24.

LLNSPPSFVCWSRGFMEMNGRGEL [AUP1]: the protein stability index turned out to be 2.1 ± 0.52 under setting [1] and 2.07 ± 0.46 under setting [2].

As to LLPEDMALRNLPPLRAAHRRFNFD [SMG5], the protein stability index reads like this: under setting [1], 3.06 ± 0.38; under setting [2], 3.2 ± 0.33.

For LLQDKQFELALQLAEMKDDSDSEK [VPS39], the protein stability index worked out at 5.19 ± 0.23 under setting [1] and 5.17 ± 0.26 under setting [2].

LLRAKIEVEKLKAIRLRHDLPEYN [RAD54B]: the protein stability index by setting is: under setting [1], 2.69 ± 0.43; under setting [2], 2.75 ± 0.49.

Consider LLSDGSNTLSVSYKKGRMMKDISN [SLC6A17], for which the protein stability index runs as follows: under setting [1], 3.03 ± 0.27; under setting [2], 3.35 ± 0.31.

With LLVYDITNRWSFDGIDRWIKEIDE [RAB40C], the protein stability index by setting is: under setting [1], 2.05 ± 0.22; under setting [2], 2.18 ± 0.45.

On to LMCGGIAFWSLVTLGSSFIPGEHF [SPNS1], for which the protein stability index by setting is: under setting [1], 3.21 ± 0.64; under setting [2], 3.18 ± 0.21.

For the sequence LMGDESACIAYIRITQYLDAGGIP [CAMK2A], the protein stability index runs as follows: under setting [1], 3.21 ± 0.89; under setting [2], 2.77 ± 0.68.

LMQLQDIQYLTENIWASQSVLSAC [IQUB]: the protein stability index reads like this: under setting [1], 2.67 ± 0.42; under setting [2], 2.24 ± 0.37.

As for LPAEVAGLSQVLLRGGGQVLLGWT [POMT2], the protein stability index reads like this: under setting [1], 2.26 ± 0.54; under setting [2], 2.26 ± 0.14.

Consider LPAGPGEEWERRPQEPRPPKRATK [CPXM2], for which the protein stability index runs as follows: under setting [1], 5.04 ± 0.53; under setting [2], 5.44 ± 0.28.

Regarding LPATLVMTVPATAIYFTAYDQLKA [SLC25A39], the protein stability index is, setting by setting: under setting [1], 3.02 ± 0.33; under setting [2], 3 ± 0.51.

Consider LPDNFTLKEDGMETVPWFPKKISD [TPH1], for which the protein stability index is, setting by setting: under setting [1], 4.4 ± 0.19; under setting [2], 4.3 ± 0.12.

LPERRGTCADRDNLTRRFSDLGFE [CASP6]: the protein stability index is 3.16 ± 0.21 under setting [1] and 3.09 ± 0.086 under setting [2].

For the sequence LPHDFIDSLEKTDDDKYKITLKYP [NLN], the protein stability index under setting [1] worked out at 3.7 ± 0.3 and the protein stability index under setting [2] is 3.13 ± 0.089.

In the case of LPILGHRDYKIQASRTWCFYNTED [PTGFR], the protein stability index was found to be 2.41 ± 0.31 under setting [1] and 2.53 ± 0.33 under setting [2].

With LPLPLSLAPPPLPLPAAAVVHVSF [ZBTB22], the protein stability index was determined as 2.34 ± 0.3 under setting [1] and 2.15 ± 0.17 under setting [2].

As for LPSRRDVYLSPRDDGYSTKDSYSS [RBMX], the protein stability index runs as follows: under setting [1], 4.11 ± 0.13; under setting [2], 3.99 ± 0.42.

As to LQGFDQLRLEGLLCDVTLMPGDTD [KLHL13], the protein stability index reads like this: under setting [1], 3.61 ± 0.36; under setting [2], 3.88 ± 0.32.

For the sequence LQIDNARLAADDFRTKFETEQALR [KRT17], the protein stability index was found to be 4.03 ± 0.24 under setting [1] and 4.27 ± 0.3 under setting [2].

For LQKVLLMLVDGIDPNFKMEHQNKR [EHMT1], the protein stability index under setting [1] worked out at 2.62 ± 0.73 and the protein stability index under setting [2] is 2.38 ± 0.33.

Turning to LQNMGLLLDKLAKENQDIRLLQAQ [PBXIP1], the protein stability index reads like this: under setting [1], 2.82 ± 0.2; under setting [2], 2.93 ± 0.35.

Consider LQRVLQNCPWPMSCPGSSYRTVVR [EMID1], for which the protein stability index is, setting by setting: under setting [1], 2.49 ± 0.27; under setting [2], 2.74 ± 0.74.

Regarding LQSAAGKDAAKQIAWIKDKLLHIY [PDS5B], the protein stability index is, setting by setting: under setting [1], 2.59 ± 0.39; under setting [2], 3.09 ± 0.61.
